How the values were obtained:
[1] = target: T1, HLA-B*0702 molecule on HLA-B*0702 transfected TAP deficient T2 cells (T2-B7) (human); test: MHC stabilization assay on T2-B7 cells, flow cytometry with ME.1; ratio of concentration giving 20% of maximal binding against reference peptide R10TV; details: remark: other sources report otherwise
[2] = target: T1, HLA-B*0702 molecule on HLA-B*0702 …; test: MHC stabilization assay on T2-B7 cells, ME-1 staining; ratio of concentration inducing 20% of HLA-B*0702 expression against reference peptide CMV265-274; details: remark: other sources report otherwise

RPAEEATSL [hTERT peptide p277 (…, residues 277-285)]
relative avidity [1]: 4.7

DPRRLVQLL [hTERT peptide p444 (…, residues 444-452)]
RA (relative affinity) [2]: > 10

Reference: patent US20090175892A1
